In paper PMC5022050, “The Crystal Structure of Peroxiredoxin Asp f3 Provides Mechanistic Insight into Oxidative Stress Resistance and Virulence of Aspergillus fumigatus” (Scientific Reports, 2016):

Molecular target: the molecule itself
Experiment: AUC; sedimentation equilibrium, PBS pH 7.4, ~5, ~15 and ~25 uM protein, 10000, 20000 and 30000 rpm, 25 °C; global fit with Sedfit and Sedphat

| Protein | stoichiometry N |
| --- | --- |
| Asp f3 wild type, recombinant, C-terminally His-tagged (enzyme, also called Aspf3 WT; WT Asp f3; source: E. coli ClearColi BL21(DE3), purified (Ni-NTA, size-exclusion on Superdex 75); not shown: His6, C-terminal, kept) MGSGLKAGDSFPSDVVFSYIPWSEDKGEITACGIPINYNASKEWADKKVILFALPGAFTPVCSARHVPEYIEKLPEIRAKGVDVVAVLAYNDAYVMSAWGKANQVTGDDILFLSDPDARFSKSIGWADEEGRTKRYALVIDHGKITYAALEPAKNHLEFSSAETVLKHL | 2 |
| Asp f3 C31S/C61S variant, recombinant, C-terminally His-tagged (enzyme, also called serine variant; mimic of the reduced Asp f3; source: E. coli ClearColi BL21(DE3), purified (Ni-NTA, size-exclusion on Superdex 75); not shown: His6, C-terminal, kept) MGSGLKAGDSFPSDVVFSYIPWSEDKGEITASGIPINYNASKEWADKKVILFALPGAFTPVSSARHVPEYIEKLPEIRAKGVDVVAVLAYNDAYVMSAWGKANQVTGDDILFLSDPDARFSKSIGWADEEGRTKRYALVIDHGKITYAALEPAKNHLEFSSAETVLKHL | 2 |
